From paper PMC11813153, “Extended receptor repertoire of an adenovirus associated with human obesity” (PLOS Pathogens, 2025)

Experiments:
[1] = molecular target: HAdV-D36 fiber knob domain (FK) (Human adenovirus type 36 (HAdV-D36), strain 275); experiment: crystal structure; fiber knobs crystallised alone or co-crystallised with 10 mM carbohydrate; HAdV-D36 FK: hanging drop, PEG 3,350, NH4Ac, 0.1 M Bis-Tris pH 5.5, 4 C
[2] = molecular target: the molecule itself; experiment: as above

HAdV-D36 fiber knob domain (FK) (domain or fragment)
stoichiometry N [1]: 3

B1: HAdV-D37 fiber knob (FK) (domain or fragment)
chain: GYLVAWNPKYDTRTLWTTPDTSPNCTIAQDKDSKLTLVLTKCGSQILANVSLIVVAGKYHIINNKTNPKIKSFTIKLLFNKNGVLLDNSNLGKAYWNFRSGNSNVSTAYEKAIGFMPNLVAYPKPSNSKKYARDIVYGTIYLGGKPDQPAVIKTTFNQETGCEYSITFNFSWSKTYENVEFETTSFTFSYIAQE
notes: fiber protein of human adenovirus type 37 (HAdV-D37), knob domain; checked against GenBank ABK59080.1 (HAdV-D37 fiber); also called HAdV-D37 FK; HAdV-D37 wt FK; source: construct, expression and purification as described previously [100]
stoichiometry N [2]: 3
